Article PMC6599971

How the values were obtained:
[1] = target: N-terminally 6×His-tagged FilP expressed in E. coli (Streptomyces coelicolor); test: turbidity (light scattering at 350 nm); His-N-FilP at 20-200 μg/ml dialysed against Tris assembly buffer; 96-well plate
[2] = target: N-terminally 6×His-tagged FilP expressed in E. coli (Streptomyces coelicolor); test: ultracentrifugation sedimentation assay; His-N-FilP 200 μg/ml dialysed against Tris pH 8.8; 135,000-300,000g, 15-30 min, 25°C
[3] = target: N-terminally 6×His-tagged FilP expressed in E. coli (Streptomyces coelicolor); test: ultracentrifugation sedimentation assay; His-N-FilP 200 μg/ml dialysed against 50 mM Tris-HCl pH 6.8 with 1 M NaCl; 135,000-300,000g, 15-30 min, 25°C
[4] = target: N-terminally 6×His-tagged FilP expressed in E. coli (Streptomyces coelicolor); test: as above; remark: listed apart in the source
[5] = target: N-terminally 6×His-tagged FilP expressed in E. coli (Streptomyces coelicolor); test: ultracentrifugation sedimentation assay; His-N-FilP 200 μg/ml dialysed against 50 mM Tris-HCl pH 6.8 with 0.2 M KCl; 135,000-300,000g, 15-30 min, 25°C
[6] = target: N-terminally 6×His-tagged FilP expressed in E. coli (Streptomyces coelicolor); test: ultracentrifugation sedimentation assay; His-N-FilP 200 μg/ml dialysed against 50 mM Tris-HCl pH 6.8 with 5 mM MgCl2; 135,000-300,000g, 15-30 min, 25°C
[7] = target: N-terminally 6×His-tagged FilP expressed in E. coli (Streptomyces coelicolor); test: ultracentrifugation sedimentation assay; His-N-FilP 200 μg/ml dialysed against 50 mM Tris-HCl pH 6.8 with 0.2 M KCl and 1 M NaCl; 135,000-300,000g, 15-30 min, 25°C

critical concentration for filamentation [1]: 33 µg/mL | percent of total FilP soluble (in the supernatant after ultracentrifugation) [2]: 32% | percent of added protein recovered in the supernatant after ultracentrifugation [3]: 35% | percent of added protein recovered in the supernatant after ultracentrifugation [4]: 40% | percent of added protein recovered in the supernatant after ultracentrifugation [5]: 25% | percent of added protein recovered in the supernatant after ultracentrifugation [6]: 11% | percent of added protein recovered in the supernatant after ultracentrifugation [7]: 63%
Substance: N-terminally 6×His-tagged FilP expressed in E. coli (natural protein)
